Reference: paper PMC6934973 (Iranian Journal of Pharmaceutical Research : IJPR, 2019)

Assay: Parallel Artificial Membrane Permeability Assay (PAMPA)
Format: in vitro ADME
Conditions: for Papp: read-out: Pe × 10-6 (cm/s), effective permeability; for permeability compared to norbuprenorphine-Leu-enkephalin: result in words
[1] = 200 μM, pH 7.4, 20% 1-propanol cosolvent, 4 h
[2] = 200 μM, pH 7.4, 20% 1-propanol cosolvent, 4 h, room temperature

| Compound | % PAMPA Transport after 4h [1] [%] | %Membrane retention [2] [%] | Papp [2] [×10⁻⁶ cm/s] | permeability compared to norbuprenorphine-Leu-enkephalin | Pe × 10-6 (cm/s), effective permeability [2] |
| --- | --- | --- | --- | --- | --- |
| COc1ccc2c3c1O[C@@H]1[C@]34CCN(C(=O)[C@H](CCSC)NC(=O)[C@H](Cc3ccccc3)NC(=O)CNC(=O)CNC(=O)[C@@H](N)Cc3ccc(O)cc3)[C@H](C2)[C@]42CC[C@@]1(OC)/C(=C(\C)C(C)(C)C)C2 [Compound 14] | 1.6 | 0 | 0.77 | – | – |
| COc1ccc2c3c1O[C@@H]1[C@]34CCN(C(=O)[C@H](CCSC)NC(=O)[C@H](Cc3ccccc3)NC(=O)CNC(=O)CNC(=O)[C@@H](N)Cc3ccc(O)cc3)[C@H](C2)[C@]42CC[C@@]1(OC)/C(=C(/C)C(C)(C)C)C2 [Compound 15] | 2.9 | 0 | 1.42 | – | – |
| CO[C@]12CC[C@@]3(C/C1=C(/C)C(C)(C)C)[C@H]1Cc4ccc(O)c5c4[C@@]3(CCN1C(=O)[C@H](CC(C)C)NC(=O)[C@H](Cc1ccccc1)NC(=O)CNC(=O)CNC(=O)[C@@H](N)Cc1ccc(O)cc1)[C@H]2O5 [Compound 17] | 6.8 | 10.3 | 3.46 | – | – |
| CO[C@]12CC[C@@]3(C/C1=C(\C)C(C)(C)C)[C@H]1Cc4ccc(O)c5c4[C@@]3(CCN1C(=O)[C@H](CC(C)C)NC(=O)[C@H](Cc1ccccc1)NC(=O)CNC(=O)CNC(=O)[C@@H](N)Cc1ccc(O)cc1)[C@H]2O5 [Compound 18] | 4.3 | 30.9 | 2.13 | – | – |
| CO[C@]12CC[C@@]3(CC1=C(C)C(C)(C)C)[C@H]1Cc4ccc(O)c5c4[C@@]3(CCN1C(=O)CCC(=O)N[C@@H](Cc1ccc(O)cc1)C(=O)NCC(=O)NCC(=O)N[C@@H](Cc1ccccc1)C(=O)N[C@@H](CC(C)C)C(=O)O)[C@H]2O5 [Compound 23] | 1.2 | 0 | 0.63 | lower permeability | – |
| CO[C@]12CC[C@@]3(CC1=C(C)C(C)(C)C)[C@H]1Cc4ccc(O)c5c4[C@@]3(CCN1C(=O)c1ccccc1C(=O)N[C@@H](Cc1ccc(O)cc1)C(=O)NCC(=O)NCC(=O)N[C@@H](Cc1ccccc1)C(=O)N[C@@H](CC(C)C)C(=O)O)[C@H]2O5 [Compound 24] | 1.9 | 0 | 0.92 | lower permeability | – |
| CC(C)NCC(O)COc1cccc2ccccc12 (centres unmarked) [Propanolol, reference compound] | 9.9 | 21.8 | – | – | 5.23 × 10-6 cm/s |
| CC(C)C[C@H](NC(=O)[C@H](Cc1ccccc1)NC(=O)CNC(=O)CNC(=O)[C@@H](N)Cc1ccc(O)cc1)C(=O)O [Standard Leu-enkephalin, Leu-enkephalin, reference compound] | 0.8 | 0 | 0.38 | – | – |
| CSCC[C@H](NC(=O)[C@H](Cc1ccccc1)NC(=O)CNC(=O)CNC(=O)[C@@H](N)Cc1ccc(O)cc1)C(=O)O [Standard Met-enkephalin, Met-enkephalin, reference compound] | 0.2 | 0 | 0.09 | – | – |
